From paper PMC3436577 (The Journal of Biological Chemistry, 2012)

B1: eIF5 (natural protein)
chain: MSINICRDNHDPFYRYKMPPIQAKVEGRGNGIKTAVLNVADISHALNRPAPYIVKYFGFELGAQTSISVDKDRYLVNGVHEPAKLQDVLDGFINKFVLCGSCKNPETEIIITKDNDLVRDCKACGKRTPMDLRHKLSSFILKNPPDSVSGSKKKKKAATASANVRGGGLSISDIAQGKSQNAPSDGTGSSTPQHHDEDEDELSRQIKAAASTLEDIEVKDDEWAVDMSEEAIRARAKELEVNSELTQLDEYGEWILEQAGEDKENLPSDVELYKKAAELDVLNDPKIGCVLAQCLFDEDIVNEIAEHNAFFTKILVTPEYEKNFMGGIERFLGLEHKDLIPLLPKILVQLYNNDIISEEEIMRFGTKSSKKFVPKEVSKKVRRAAKPFITWLETAESDDDEEDDE
B2: c/Nip1-NTD (1–270) Box12-SPW (domain or fragment)
chain: MSRFFSSNYEYDVASSSSEEDLLSSSEEDLLSSSSSESELDQESDDSFFNESESESEADVDSDDSDAKPYGPDWFKKSEFRKQGGGSNKFLKSSNYDSSDEESDEEDGKKVVSSAPEWLLDEMQDVYNKISQAENSDDWLTISNEFDLISRLLVRAQQQNWGTPNIFIKVVAQVEDAVNNTQQADLKNKAVARAYNTTKQRVKKVSRENEDSMAKFRNDPESFDKEPTADLDISANGFTISSSQGNDQAVQEDFFTRLQTIIDSRGKKTV
modifications: 35S-labeled

Key:
Test in all cases: pull-down
[1] = target: c/Nip1-His GAP85 (Δ60–144) (S. cerevisiae, UniProt P32497 1-812, Δ60–144)
c/Nip1-His Box15-2 = c/Nip1-His Box15-2 (S. cerevisiae, UniProt P32497 1-812, I142V | E145W | F146T | D147L | I149R)
c/Nip1-His Box12-WWPW = c/Nip1-His Box12-WWPW (S. cerevisiae, UniProt P32497 1-812, V111W | V112W | K116P | K118W)
GST-eIF1 = GST-eIF1 (S. cerevisiae, UniProt P32911 1-108)
GST-eIF1, sequence (P32911 whole entry): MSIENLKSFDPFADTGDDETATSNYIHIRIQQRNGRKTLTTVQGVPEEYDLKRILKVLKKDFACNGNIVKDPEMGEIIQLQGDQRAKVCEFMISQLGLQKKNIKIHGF

reduction of eIF5 associated in vivo, relative to WT c/Nip1-His [1] [%] | reduction of eIF5 associated in vivo, relative to WT c/Nip1-His (c/Nip1-His Box15-2) [%] | reduction of eIF5 associated in vivo, relative to WT c/Nip1-His (c/Nip1-His Box12-WWPW) [%] | fold increase in binding relative to the WT c/Nip1-NTD (GST-eIF1) [fold] | Binder
> 60 | > 60 | ~30 |  | B1
 |  |  | ~2 | B2
